Assay [1] has as its target T1, human tenascin-R rCd4-His-FBG (rat; human, UniProt P05540 207-392, limits assumed).
T1 construct: domain: domains 3 and 4; C-terminal FBG fusion; also called Hu TNR; human TNR rCd4-His-FBG; not shown: 6His tag
T1 sequence (chain (part 1 of 2)): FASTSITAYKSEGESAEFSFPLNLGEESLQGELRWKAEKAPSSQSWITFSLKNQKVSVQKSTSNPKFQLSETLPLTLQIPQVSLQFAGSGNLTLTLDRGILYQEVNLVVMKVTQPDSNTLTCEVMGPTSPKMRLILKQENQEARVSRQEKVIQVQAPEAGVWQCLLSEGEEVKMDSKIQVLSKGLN
T1 sequence (chain (part 2 of 2)): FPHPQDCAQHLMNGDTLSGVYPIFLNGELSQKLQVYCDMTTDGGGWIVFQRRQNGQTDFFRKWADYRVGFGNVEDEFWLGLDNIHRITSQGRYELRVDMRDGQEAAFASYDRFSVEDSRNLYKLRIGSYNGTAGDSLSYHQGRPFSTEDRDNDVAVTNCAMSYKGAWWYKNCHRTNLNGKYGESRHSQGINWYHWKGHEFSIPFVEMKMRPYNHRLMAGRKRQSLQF
Briefly: SPR steady state, captured Fab, 25 C. The method, then:
(§1) Experiments were performed using a BIAcore T100 instrument with CM5 sensor chip according to the protocol provided with the Human Fab Capture Kit (GE, 28-9583-25). […] After reference signal subtraction, the data was fitted to a global 1:1 fit using the T100 BIAevaluation software (FIGS. 6 a-d).

Another assay concerns the target T2, human Fc-His-FBG (human, UniProt P24821 1974-2201).
T2 sequence: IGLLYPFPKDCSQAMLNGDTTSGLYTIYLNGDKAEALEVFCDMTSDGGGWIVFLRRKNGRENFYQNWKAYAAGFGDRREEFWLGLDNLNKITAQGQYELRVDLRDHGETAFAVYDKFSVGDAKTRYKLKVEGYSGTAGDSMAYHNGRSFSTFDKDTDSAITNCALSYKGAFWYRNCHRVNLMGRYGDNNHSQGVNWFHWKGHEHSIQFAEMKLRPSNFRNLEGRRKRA
Briefly: cell-based or functional assay.

The target of assay [2] is T3, mouse tenascin-C rCd4-His-FBG (rat; mouse, UniProt P05540 207-392, limits assumed).
T3 construct: domain: domains 3 and 4; C-terminal FBG fusion; biotinylated in the ELISA screen; also called Mu TNC; mouse TNC rCd4-His-FBG; not shown: 6His tag
T3 sequence (chain (part 1 of 2)): T1 sequence (chain (part 1 of 2))
T3 sequence (chain (part 2 of 2)): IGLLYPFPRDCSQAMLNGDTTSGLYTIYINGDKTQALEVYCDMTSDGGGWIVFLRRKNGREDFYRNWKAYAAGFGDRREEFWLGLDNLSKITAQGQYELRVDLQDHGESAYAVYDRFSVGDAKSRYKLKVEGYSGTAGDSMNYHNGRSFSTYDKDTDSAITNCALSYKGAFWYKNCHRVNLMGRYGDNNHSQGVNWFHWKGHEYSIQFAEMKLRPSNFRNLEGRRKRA
The assay can be described thus: SPR, captured Fab, 25 C. As for the experimental part: as §1
(In general: SPR reads the build-up and loss of mass on a sensor chip optically.)

Assay [3] concerns the target T4, human tenascin-C rCd4-His-FBG (rat; human, UniProt P05540 207-392, limits assumed).
T4 construct: domain: domains 3 and 4; C-terminal FBG fusion; biotinylated in the ELISA and HTRF screens; also called Hu TNC; human TNC rCd4-His-FBG; not shown: 6His tag
T4 sequence (chain (part 1 of 2)): T1 sequence (chain (part 1 of 2))
T4 sequence (chain (part 2 of 2)): T2 sequence
The assay can be described thus: SPR, captured Fab, 25 C. As for the experimental part: as §1

A further assay addresses T5, Human FGB-rCd4.
T5 construct: Not the same construct as m1, which has the FBG at the C terminus; also called human TNC FBG-rCD4; human tenascin-C FBG-rCd4-His (FBG at the N terminus of the rat Cd4 tag); not shown: rat Cd4 (domains 3 and 4) tag, the C-terminal His6 tag and the vector-derived junction residues of pBIOCAM4
T5 chain: T2 sequence
Briefly: ELISA (DELFIA), antigen coated on the well, purified Fab at 50 nM, detected with anti-kappa or anti-lambda mAb and Europium-conjugated anti-mouse mAb.

In assay [4] the target is T3, mouse tenascin-C rCd4-His-FBG. Briefly: SPR, parental antibody.
The target is the same in assay [5]. Briefly: SPR off-rate screen, captured IgG4 supernatant, 25 C. The method, then:
(§2) The 31 scFv of interest were sub-cloned into a human IgG4 expression vector for generation of antibodies as human IgG4 with a hinge-stabilising mutation (S241P; Angal et al, 1993). […] Briefly, surface plasmon resonance (SPR) experiments were performed using a BIAcore T100 instrument and followed the protocol according to the Human antibody capture kit protocol (GE, BR-1008-39). For off-rate screening, 10,000 response units (RU) of anti-human Fc IgG (GE, BR-1008-39) was immobilised on flow-cells (FC1 and FC2) of a Series 5 CM5 dextran sensor chip (BR-1005-30) using EDC/NHS cross-linking chemistry according to the amine coupling kit protocol (GE, BR-1000-50). Culture supernatants containing expressed IgG4 were diluted 1:2 with 2×PBS-T and injected into FC2 (flowrate 5 μl/min, 60 s contact time) to enable antibody capture at 25° C. […] A fixed concentration of antigen (15 nM of human and mouse TNC rCd4-His-FBG and 100 nM of human TNR rCd4-His-FBG) was injected with a flow-path via FC 1 (reference flow cell) and FC 2 (antibody capture flow cell), with a flow rate of 30 μl/min, and the association and dissociation phases measured over 1 and 5 min time periods, respectively. Regeneration of the binding surface employed 3M MgCl₂ with 30 s contact time. Off rates were determined by reference cell subtraction and fitting the sensogram experimental data assuming a 1:1 interaction using BIAevaluation software (GE, BR-1005-97).

The target of assay [6] is T4, human tenascin-C rCd4-His-FBG. The assay is described as above. The method, then: as §2
Assay [7] addresses T6, dog tenascin-C rCD4-His-FBG (rat; dog, UniProt P05540 207-392, limits assumed).
T6 construct: domain: domains 3 and 4; C-terminal FBG fusion; also called Dog TNC; not shown: 6His tag
T6 sequence (chain (part 1 of 2)): T1 sequence (chain (part 1 of 2))
T6 sequence (chain (part 2 of 2)): T3 sequence (chain (part 2 of 2)) with I29L, T34A, S89H, Q104R, E108K, S109T, S124T, N142A, Y152F
The assay can be described thus: SPR, captured purified IgG4, 37 C. As for the experimental part:
(§3) Detailed kinetic parameters were evaluated for the 9 prioritised IgG4 antibodies. Binding characteristics were determined for interaction with human, rat and dog TNC rCD4-His-FBG, and human TNR rCD4-His-FBG. Kinetic assays followed essentially the same protocols as for the off-rate determinations described above, with some modifications as follows. […] Purified anti-FBG IgG4 was diluted to a concentration of 3.5 nM in PBS, pH 7.4, 0.05% Tween-20 and injected into FC2 at a flow rate of 10 μl/min, 60 s contact time. […] Antigens were prepared by doubling dilution in PBS, pH 7.4, 0.05% Tween-20 (highest concentration 100 nM except mouse rCD4-His-FBG which was 7 nM). Assays were performed at 37° C. (30 μl/min, 120 s contact time; mouse rCD4-His-FBGFBG 10 μl/min, 60 s contact time), with both the flow cell and injection chamber equilibrated to this temperature. As before, kinetic parameters were determined by reference cell subtraction and fitting the sensogram experimental data assuming a 1:1 interaction using BIAevaluation software (GE, BR-1005-97).

For assay [8], the target named is T7, rat tenascin-C rCd4-His-FBG (rat, UniProt P05540 207-392, limits assumed).
T7 construct: domain: domains 3 and 4; C-terminal FBG fusion; also called Rat TNC; rat TNC rCD4-His-FBG; not shown: 6His tag
T7 sequence (chain (part 1 of 2)): T1 sequence (chain (part 1 of 2))
T7 sequence (chain (part 2 of 2)): T3 sequence (chain (part 2 of 2)) with A72T
The assay can be described thus: SPR, captured purified IgG4, 37 C. As for the experimental part:
as §3

The target in assay [9] is T3, mouse tenascin-C rCd4-His-FBG. Briefly: SPR, captured purified IgG4, 37 C. As for the experimental part:
as §3

Assay [10] has as its target T4, human tenascin-C rCd4-His-FBG. The assay can be described thus: SPR, captured purified IgG4, 37 C. The method, then: as §3
Assay [11] deals with T1, human tenascin-R rCd4-His-FBG. The assay can be described thus: SPR off-rate screen, captured IgG4 supernatant, 25 C. As for the experimental part: as §2
The target is the same in assay [12]. The assay can be described thus: SPR, captured purified IgG4, 37 C. The method, then: as §3

Here are results for three molecules from patent US20170306005A1 (NASCIENT, published 2017).

Numbering of substitutions follows the chain as printed. Names may count otherwise.

B1: Fab F3 (Fab, V domains shown)
VH: EVQLLESGGGLVQPGGSLRLSCAASGFTFSSYGMHWVRQAPGKGLEWVAVISYDGSNKYYADSVKGRFTISRGNSKNTLYLQMNSLKAEDTAVYYCAREGYDQLFSAESNAFDIWGQGTLVTVSS
VL: NFMLAQPHSVSESPGKTVTISCTRSSGSIASYFVQWFQQRPGSAPTAVIYEDNQRPSGVPDRFSGSIDSSSNSASLTISGLKTEDEADYYCQSYDSSNWVFGGGTKVTVLG
notes: monomeric Fab
On to B1, for which, in [1], the Kd is 1810 nM. For the same molecule, in the assay with human Fc-His-FBG, the “IC50, inhibition of Fc-His-HuFBG-evoked IL-8 release, THP1-Blue cells” value came to 13.8 nM and the “IC50, inhibition of Fc-His-HuFBG-evoked alkaline phosphatase, THP1-Blue cells” value was found to be 8.4 nM. In addition, in assay [2], binding was characterised by a dissociation constant (Kd) of 70.6 nM, the koff was determined as 0.00642 s⁻¹ and the on-rate (kon) is 91000 M⁻¹ s⁻¹. In assay [3], this molecule came in with a Kd of 27.4 nM, an off-rate (koff) of 0.00346 s⁻¹ and a kon of 126000 M⁻¹ s⁻¹. The binding result with Human FGB-rCd4 was “binds”. The “fold difference in affinity between human and mouse rCd4-his-FBG” value in [4] was determined as 2.6 fold.

B2: 165_13_B1 human IgG4 (antibody, V domains shown)
VH: QVQLVESGGGLVQPGRSLRLSCAASGFTFDDYAMHWVRQAPGKGLEWVSGISGSGGSTYYADSVKGRFTISRDNAKNSLYLQMNSLRAEDTALYYCAKVMSSMEDAFDIWGQGTMVTVSS
VL: DIQMTQSPASLPTPVGDRVTITCRASQYIQGFLNWYQQKPGKAPKLLIYDASNLETGVPSRFSGSGSGTDFTLTISSLQPEDFATYYCQQSYSTPQTFGQGTKVDIKR
notes: human IgG4 with hinge S241P
For B2, the koff came out at 1.7e-06 s⁻¹ in assay [5]; 1.5e-06 s⁻¹ in assay [6]; 0.0187 s⁻¹ in assay [7]; 0.00684 s⁻¹ in [8]; 0.000706 s⁻¹ in assay [9]; 0.00188 s⁻¹ in [10]. The Kd turned out to be 2.85 nM in assay [7], 2.2 nM in [8], 0.96 nM in assay [9] and 0.26 nM in assay [10]. Further, the kon turned out to be 6.55e+06 M⁻¹ s⁻¹ in assay [7], 3.11e+06 M⁻¹ s⁻¹ in assay [8], 733000 M⁻¹ s⁻¹ in assay [9] and 7.27e+06 M⁻¹ s⁻¹ in assay [10].

B3: 160_01_A4 human IgG4 (antibody, V domains shown)
VH: EVRLVQSGAEVKKPGASVKVSCKVSGYTLTELSMHWVRQAPGKGLEWMGGFDPEDGETIYAQKFQGRVTMTEDTSTDTAYMELSSLRSEDTAVYYCATAQKETLGNAIWGQGTLVTVSS
VL: B2 VL with P14S, K45R, D50A, N53T, E55Q, T56D, S67Y, Q96W, D105E
notes: human IgG4 with hinge S241P; also called Antibody 160 01 A4 (derived from 2A5)
On to B3, for which the koff in assay [11] stood at 0.011 s⁻¹; in [5], 5.9e-06 s⁻¹; in assay [6] it was 6.7e-06 s⁻¹; in assay [7], 0.00018 s⁻¹; in assay [8], 0.00189 s⁻¹; in [12] it was 0.00399 s⁻¹. Further, the koff in assay [9] was determined as 0.000146 s⁻¹; in [10] it was 0.0005 s⁻¹. Further, the Kd in assay [7] came to 0.094 nM; in [8], 1.49 nM; in assay [12], 15.2 nM; in assay [9], 1.23 nM; in assay [10], 0.21 nM. Moreover, the kon in assay [7] stood at 1.9e+06 M⁻¹ s⁻¹; in assay [8], 1.27e+06 M⁻¹ s⁻¹; in assay [12], 260000 M⁻¹ s⁻¹; in assay [9] it was 118000 M⁻¹ s⁻¹; in assay [10], 2.35e+06 M⁻¹ s⁻¹. Besides, the “fold lower affinity than for human TNC FBG” value in [12] is above 70 fold.

Broadly, the Kd is the concentration at which binding is half-saturated. What is called koff is the first-order rate constant of dissociation. Broadly, the kon is the second-order rate constant of association. Higher therefore signals fast association.
